# Results taken from patent US20240116985A1, “STAPLED PEPTIDES AND METHODS THEREOF” (priority 2020, published 2024).
# Starred links: 1 amine or outer side, 2 acyl side, 3 side chain; linkers in the order of their positions; H or OH if unused. Positions of bridges follow the written chain, without caps; N, C: chain ends. Non-standard residues stand in square brackets, D forms with d. Primed or numbered codes have the meaning given here. No end group written: not given here. *: point of attachment. PyrS2″ = (S)-3-amino-1-((pent-4-en-1-yloxy)carbonyl)pyrrolidine-3-carboxylic acid (stapling residue), C=CCCCOC(=O)N1CC[C@@](N[*:1])(C(=O)[*:2])C1; B5(4) = 2,2-bis(4-pentenyl)glycine = 2-amino-2-(pent-4-en-1-yl)hept-6-enoic acid (stitching residue), C=CCCCC(CCCC=C)(N[*:1])C(=O)[*:2]; B5(5) = 2,2-bis(4-pentenyl)glycine, 2-amino-2-(pent-4-en-1-yl)hept-6-enoic acid (stitching residue), C=CCCCC(CCCC=C)(N[*:1])C(=O)[*:2]; TfeGA = (S)-2-amino-3-((carboxymethyl)(2,2,2-trifluoroethyl)amino)propanoic acid, O=C([C@H](CN(CC(=O)[*:3])CC(F)(F)F)N[*:1])[*:2]; PyrS2 = (S)-3-amino-1-((pent-4-en-1-yloxy)carbonyl)pyrrolidine-3-carboxylic acid, C=CCCCOC(=O)N1CC[C@@](N[*:1])(C(=O)[*:2])C1; B5(12) = 2-amino-2-(pent-4-en-1-yl)hept-6-enoic acid (two olefin side chains), C=CCCCC(CCCC=C)(N[*:1])C(=O)[*:2]; B5(13) = 2-amino-2-(pent-4-en-1-yl)hept-6-enoic acid (two alkene chains), C=CCCCC(CCCC=C)(N[*:1])C(=O)[*:2]; B5(3) = 2,2-bis(4-pentenyl)glycine (stitching residue), C=CCCCC(CCCC=C)(N[*:1])C(=O)[*:2]; Phe(3-COOH) = N[C@@H](Cc1cccc(C(=O)O)c1)C(=O)O; Phe(2-CF3) = N[C@@H](Cc1ccccc1C(F)(F)F)C(=O)O; Phe(2-Cl) = N[C@@H](Cc1ccccc1Cl)C(=O)O; Phe(2-OMe) = COc1ccccc1C[C@H](N)C(=O)O; 1Nal = N[C@@H](Cc1cccc2ccccc12)C(=O)O; 2Nal = N[C@@H](Cc1ccc2ccccc2c1)C(=O)O; Bta = N[C@@H](Cc1csc2ccccc12)C(=O)O; αAllylPro = C=CC[C@@]1(C(=O)O)CCCN1; tBuAla = CC(C)(C)C[C@H](N)C(=O)O; 2Thi = N[C@@H](Cc1cccs1)C(=O)O; 3Thi = N[C@@H](Cc1ccsc1)C(=O)O; S8 = C=CCCCCCC[C@](C)(N)C(=O)O; Thr(ol) = C[C@@H](O)[C@H](N)CO; Alaol = C[C@@H](CO)N*
# Experiments:
# [1] = target: Bcat-Halo (beta-catenin HaloTag construct expressed in HEK293 cells) (UniProt P35222); test: NanoBRET IC50 in HEK293 cells; Bcat-Halo with TCF4-Luc as competitor
# [2] = target: full-length beta-Catenin (Uniprot ID P35222) (Homo sapiens (Human)) (UniProt P35222); test: fluorescence polarization competition; 10 nM full-length beta-catenin with 10 nM 5FAM-TCF4 (residues 10-53) probe as competitor
# Target sequence in this assay (P35222 2-781 limits assumed): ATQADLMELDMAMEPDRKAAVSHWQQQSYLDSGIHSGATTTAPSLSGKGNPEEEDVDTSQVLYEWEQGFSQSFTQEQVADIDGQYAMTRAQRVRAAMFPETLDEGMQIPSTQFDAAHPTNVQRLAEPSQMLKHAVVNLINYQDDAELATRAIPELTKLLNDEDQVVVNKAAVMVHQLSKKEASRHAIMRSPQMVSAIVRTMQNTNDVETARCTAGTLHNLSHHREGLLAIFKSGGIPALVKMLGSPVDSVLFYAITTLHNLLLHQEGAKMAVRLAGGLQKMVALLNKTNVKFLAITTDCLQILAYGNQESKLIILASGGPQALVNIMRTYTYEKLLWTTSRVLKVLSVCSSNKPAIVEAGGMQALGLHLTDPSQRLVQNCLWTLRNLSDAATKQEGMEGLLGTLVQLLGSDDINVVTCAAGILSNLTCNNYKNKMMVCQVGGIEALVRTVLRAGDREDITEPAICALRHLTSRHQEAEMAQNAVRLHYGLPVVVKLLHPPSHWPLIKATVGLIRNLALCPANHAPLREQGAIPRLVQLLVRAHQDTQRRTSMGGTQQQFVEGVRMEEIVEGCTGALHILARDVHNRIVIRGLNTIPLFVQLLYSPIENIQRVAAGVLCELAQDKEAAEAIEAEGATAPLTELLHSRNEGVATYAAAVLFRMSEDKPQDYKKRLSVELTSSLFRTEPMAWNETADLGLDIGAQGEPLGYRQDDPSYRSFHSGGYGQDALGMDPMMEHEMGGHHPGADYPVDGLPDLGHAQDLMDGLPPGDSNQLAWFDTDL
# [3] = target: full-length beta-Catenin (Uniprot ID P35222) (Homo sapiens (Human)) (UniProt P35222); test: FP competition vs 5FAM-TCF4(10-53), full-length beta-catenin
# Target sequence in this assay (P35222 2-781 limits assumed): as above
# Bcat-Halo [4] = target: Bcat-Halo (UniProt P35222); test: NanoBRET Abs IC50, HEK293 cells, B-cat-Halo/TCF4-Luc; competitor TCF4-Luc
# Bcat-Halo [5] = target: Bcat-Halo (UniProt P35222); test: NanoBRET Abs IC50, HEK293 cells; B-cat-Halo/TCF4-Luc engagement, competitor TCF4-Luc
# [6] = target: full-length beta-Catenin (Uniprot ID P35222) (Homo sapiens (Human)) (UniProt P35222); test: FP competition; full-length beta-catenin, competitor 5FAM-TCF4(10-53)
# Target sequence in this assay (P35222 whole entry, the tested form may be a part, one chain of several): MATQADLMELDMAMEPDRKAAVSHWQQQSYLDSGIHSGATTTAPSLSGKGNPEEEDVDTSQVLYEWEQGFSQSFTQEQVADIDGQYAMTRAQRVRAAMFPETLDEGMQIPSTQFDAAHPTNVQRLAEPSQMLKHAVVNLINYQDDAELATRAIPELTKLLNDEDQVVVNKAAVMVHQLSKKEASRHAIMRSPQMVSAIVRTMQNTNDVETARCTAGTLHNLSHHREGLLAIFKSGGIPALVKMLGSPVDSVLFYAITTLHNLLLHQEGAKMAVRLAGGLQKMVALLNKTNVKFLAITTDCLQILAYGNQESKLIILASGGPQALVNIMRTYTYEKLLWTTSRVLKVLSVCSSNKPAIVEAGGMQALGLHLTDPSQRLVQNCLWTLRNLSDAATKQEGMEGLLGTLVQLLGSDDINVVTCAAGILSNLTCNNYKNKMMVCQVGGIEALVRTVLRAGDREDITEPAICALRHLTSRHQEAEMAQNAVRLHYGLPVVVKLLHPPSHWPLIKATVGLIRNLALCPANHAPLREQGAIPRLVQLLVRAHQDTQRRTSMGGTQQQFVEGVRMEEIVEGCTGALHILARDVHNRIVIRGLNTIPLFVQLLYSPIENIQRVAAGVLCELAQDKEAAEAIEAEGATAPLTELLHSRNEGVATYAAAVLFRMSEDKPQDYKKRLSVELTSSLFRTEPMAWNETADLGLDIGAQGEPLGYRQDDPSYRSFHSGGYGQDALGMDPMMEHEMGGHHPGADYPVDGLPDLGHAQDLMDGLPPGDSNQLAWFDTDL
# [7] = target: full-length beta-Catenin (Uniprot ID P35222) (Homo sapiens (Human)) (UniProt P35222); test: fluorescence polarization competition; full-length beta-catenin with 5FAM-TCF4(10-53) probe as competitor
# Target sequence in this assay (P35222 2-781 limits assumed): as the sequence (P35222 2-781 limits assumed) above
# [8] = target: full-length beta-Catenin (Uniprot ID P35222) (Homo sapiens (Human)) (UniProt P35222); test: AlphaScreen competition vs biotin-TCF4(10-53) on full-length beta-catenin
# Target sequence in this assay (P35222 whole entry, the tested form may be a part, one chain of several): as the sequence (P35222 whole entry, the tested form may be a part, one chain of several) above
# [9] = target: B-cat-Halo (beta-catenin HaloTag NanoBRET construct expressed in HEK293 cells) (UniProt P35222); test: NanoBRET Abs IC50 in HEK293 cells; Bcat-Halo, TCF4-Luc as competitor
# [10] = target: full-length beta-Catenin (Uniprot ID P35222) (Homo sapiens (Human)) (UniProt P35222); test: FP competition: displacement of 5FAM-TCF4(10-53) from full-length beta-catenin
# Target sequence in this assay (P35222 whole entry, the tested form may be a part, one chain of several): as above
# [11] = target: full-length beta-Catenin (Uniprot ID P35222) (Homo sapiens (Human)) (UniProt P35222); test: fluorescence polarization competition; full-length beta-catenin, 5FAM-TCF4(10-53) probe as competitor
# Target sequence in this assay (P35222 2-781 limits assumed): as the sequence (P35222 2-781 limits assumed) above
# [12] = target: full-length beta-Catenin (Uniprot ID P35222) (Homo sapiens (Human)) (UniProt P35222); test: fluorescence polarization competition against 5FAM-TCF4 10-53 on full-length beta-catenin
# Target sequence in this assay (P35222 whole entry, the tested form may be a part, one chain of several): as the sequence (P35222 whole entry, the tested form may be a part, one chain of several) above
# Bcat-Halo [13] = target: Bcat-Halo (UniProt P35222); test: NanoBRET Abs IC50, HEK293 cells, B-cat-Halo / TCF4-Luc engagement
# [14] = target: full-length beta-Catenin (Uniprot ID P35222) (Homo sapiens (Human)) (UniProt P35222); test: fluorescence polarization competition; full-length beta-catenin, competitor probe 5FAM-TCF4(10-53)
# Target sequence in this assay (P35222 2-781 limits assumed): as the sequence (P35222 2-781 limits assumed) above
# [15] = target: full-length beta-Catenin (Uniprot ID P35222) (Homo sapiens (Human)) (UniProt P35222); test: fluorescence polarization competition; full-length beta-catenin with 5FAM-labeled TCF4 (10-53) probe as competitor
# Target sequence in this assay (P35222 whole entry, the tested form may be a part, one chain of several): as the sequence (P35222 whole entry, the tested form may be a part, one chain of several) above
# [16] = target: B-cat-Halo (beta-catenin HaloTag NanoBRET construct expressed in HEK293 cells) (UniProt P35222); test: NanoBRET Abs IC50; HEK293 cells transfected with B-cat-Halo and TCF4-Luc (competitor: TCF4-Luc)
# [17] = target: full-length beta-Catenin (Uniprot ID P35222) (Homo sapiens (Human)) (UniProt P35222); test: fluorescence polarization competition; displacement of 5FAM-TCF4(10-53) from full-length beta-catenin
# Target sequence in this assay (P35222 whole entry, the tested form may be a part, one chain of several): as above
# [18] = target: full-length beta-Catenin (Uniprot ID P35222) (Homo sapiens (Human)) (UniProt P35222); test: fluorescence polarization competition: peptide titrated against 10 nM full-length beta-catenin + 10 nM 5FAM-TCF4(10-53) probe
# Target sequence in this assay (P35222 2-781 limits assumed): as the sequence (P35222 2-781 limits assumed) above
# [19] = target: full-length beta-Catenin (Uniprot ID P35222) (Homo sapiens (Human)) (UniProt P35222); test: fluorescence polarization competition; 10 nM full-length beta-catenin with 10 nM 5FAM-TCF4(10-53) probe as competitor
# [20] = target: B-cat-Halo (beta-catenin HaloTag NanoBRET construct expressed in HEK293 cells) (UniProt P35222); test: NanoBRET in HEK293 cells, Bcat-Halo + TCF4-Luc (competitor partner TCF4)
# [21] = target: full-length beta-Catenin (Uniprot ID P35222) (Homo sapiens (Human)) (UniProt P35222); test: fluorescence polarization competition; peptide displaces 5FAM-TCF4(10-53) from full-length beta-catenin
# [22] = target: full-length beta-Catenin (Uniprot ID P35222) (Homo sapiens (Human)) (UniProt P35222); test: FP competition, full-length beta-catenin, competitor probe 5FAM-TCF4 10-53
# Bcat-Halo [23] = target: Bcat-Halo (UniProt P35222); test: NanoBRET absolute IC50, HEK293 cells, Bcat-Halo/TCF4-Luc engagement
# [24] = target: B-cat-Halo (beta-catenin HaloTag NanoBRET construct expressed in HEK293 cells) (UniProt P35222); test: NanoBRET in HEK293 cells, Bcat-Halo + TCF4-Luc, peptide at 10 uM
# Sequence of B-cat-Halo (beta-catenin HaloTag NanoBRET construct expressed in HEK293 cells) (P35222 whole entry): as the sequence (P35222 whole entry, the tested form may be a part, one chain of several) above
# Sequence of Bcat-Halo (beta-catenin HaloTag construct expressed in HEK293 cells) (P35222 whole entry, the tested form may be a part): as the sequence (P35222 whole entry, the tested form may be a part, one chain of several) above
# Sequence of Bcat-Halo (P35222 whole entry): as the sequence (P35222 whole entry, the tested form may be a part, one chain of several) above
binder,measurement,setting,value
"Ac-[αAllylPro]D[tBuAla][B5(3)]DHAAFN[PyrS2″][3Thi][Bta]Q-NH2 (staple 1-4, 4-11) [I-864]",IC50,[1],29100 nM
same,EC50,[2],12 nM
same,IC50,[3],12 nM
same,IC50,Bcat-Halo [4],40000 nM
"Ac-[αAllylPro]D[tBuAla][B5(4)]DDAAF[Phe(2-CF3)][PyrS2][3Thi][Bta]Q-NH2 (staple 1-4, 4-11) [I-1363]",IC50,Bcat-Halo [5],5500 nM
same,EC50,[6],9 nM
same,IC50,[7],9 nM
"Ac-[αAllylPro]DA[B5(4)]D[2Nal]AAFQ[S8]F[Bta]A-NH2 (staple 1-4, 4-11) [I-296]",EC50,[8],1910 nM
"Ac-[αAllylPro]DA[B5(4)]D[2Nal]AAFV[S8]F[Bta]Q-NH2 (staple 1-4, 4-11) [I-297]",EC50,[8],5810 nM
"Ac-[αAllylPro]D[tBuAla][B5(4)]D[TfeGA]AAFT[PyrS2″][Phe(2-Cl)][Bta]-Alaol (staple 1-4, 4-11) [I-1242]",IC50,[9],> 20000 nM
same,EC50,[10],30 nM
same,IC50,[11],30 nM
"Ac-[αAllylPro]D[tBuAla][B5(5)]D[Phe(3-COOH)]AAFL[PyrS2″][Phe(2-CF3)][Bta]QLV-NH2 (staple 1-4, 4-11) [I-2379]",IC50,[12],246 nM
same,IC50,Bcat-Halo [13],5000 nM
"Ac-[αAllylPro]D[tBuAla][B5(3)]D[TfeGA]AAFF[PyrS2″][Phe(2-Cl)][Bta]S-NH2 (staple 1-4, 4-11) [I-990]",IC50,[14],41 nM
same,EC50,[15],41 nM
same,IC50,[16],8800 nM
"Ac-[αAllylPro]D[tBuAla][B5(4)]DTAAFN[PyrS2][3Thi][Bta]Q-NH2 (staple 1-4, 4-11) [I-844]",IC50,[1],10700 nM
same,EC50,[2],6 nM
same,IC50,[17],6 nM
"Ac-[αAllylPro]DA[B5(4)]D[2Nal]AAFS[S8]F[Bta]Q-NH2 (staple 1-4, 4-11) [I-298]",EC50,[8],3860 nM
"Ac-[αAllylPro]D[tBuAla][B5(3)]DDAAFF[PyrS2″][3Thi][Bta]Q-NH2 (staple 1-4, 4-11) [I-807]",EC50,[18],5 nM
same,IC50,[19],5 nM
same,IC50,[20],5300 nM
"Ac-[αAllylPro]D[tBuAla][B5(5)]DDAAFT[PyrS2″][3Thi][1Nal]Q-NH2 (staple 1-4, 4-11) [I-1232]",IC50,[9],43300 nM
same,EC50,[10],31 nM
same,IC50,[11],31 nM
"Ac-[αAllylPro]D[tBuAla][B5(12)]DNAAFN[PyrS2][3Thi][Bta]-NH2 (staple 1-4, 4-11) [I-857]",IC50,[1],50600 nM
same,EC50,[2],15 nM
same,IC50,[3],15 nM
same,IC50,Bcat-Halo [4],30600 nM
"Ac-[αAllylPro]D[tBuAla][B5(3)]D[TfeGA]AAFF[PyrS2″]F[Bta]Q-NH2 (staple 1-4, 4-11) [I-988]",IC50,[14],5 nM
same,EC50,[15],5 nM
same,IC50,[16],13900 nM
"Ac-[αAllylPro]D[tBuAla][B5(3)]DEAAFN[PyrS2][3Thi][Bta]-NH2 (staple 1-4, 4-11) [I-786]",EC50,[18],8 nM
same,IC50,[20],17100 nM
same,IC50,[21],8 nM
"[αAllylPro]D[tBuAla][B5(4)]DDAAFF[PyrS2″][2Thi][Bta]Q-NH2 (staple 1-4, 4-11) [I-1345]",IC50,Bcat-Halo [5],4700 nM
same,EC50,[6],15 nM
same,IC50,[22],15 nM
same,IC50,Bcat-Halo [23],4700 nM
"[αAllylPro]D[tBuAla][B5(4)]DDAAFS[PyrS2″]F[Bta]S-NH2 (staple 1-4, 4-11; not fully specified; printed as PL3-Asp-Npg-B5-Asp-Asp-Ala-Ala-Phe-Ser-PyrS2-Phe-BztA-Ser-NH2) [I-1356]",IC50,Bcat-Halo [5],> 20000 nM
same,EC50,[6],23 nM
same,IC50,[7],23 nM
"Ac-[αAllylPro]D[tBuAla][B5(4)]D[TfeGA]AAFT[PyrS2″][Phe(2-Cl)][Bta][Thr(ol)] (staple 1-4, 4-11) [I-1241]",IC50,[9],15700 nM
same,EC50,[10],19 nM
same,IC50,[11],19 nM
"Ac-[αAllylPro]D[tBuAla][B5(13)]DDAAFN[PyrS2][Phe(2-OMe)][Bta]H-NH2 (staple 1-4, 4-11) [I-781]",EC50,[18],5 nM
same,NanoBRET % inh @ 10 uM,[24],24%
same,IC50,[20],11600 nM
same,IC50,[21],5 nM
"[αAllylPro]D[tBuAla][B5(4)]DDAAFS[PyrS2″]F[Bta]S-NH2 (staple 1-4, 4-11) [I-1357]",IC50,Bcat-Halo [5],33600 nM
same,EC50,[6],10 nM
same,IC50,[7],10 nM
"Ac-[αAllylPro]D[tBuAla][B5(5)]DDAAFT[PyrS2″][3Thi][2Nal]Q-NH2 (staple 1-4, 4-11) [I-1233]",IC50,[9],54500 nM
same,EC50,[10],24 nM
same,IC50,[11],24 nM
"Ac-[αAllylPro]D[tBuAla][B5(3)]DDAAFN[PyrS2][Phe(2-Cl)][Bta]H-NH2 (staple 1-4, 4-11) [I-784]",EC50,[18],6 nM
same,NanoBRET % inh @ 10 uM,[24],35.1%
same,IC50,[20],12100 nM
same,IC50,[21],6 nM
